We go through one substance from paper PMC2657102, “Molecular cloning and characterization of a novel pyrethroid-hydrolyzing esterase originating from the Metagenome” (Microbial Cell Factories, 2008).

This data set concerns CC1(C)C(C=C(Cl)Cl)C1C(=O)OCc1cccc(Oc2ccccc2)c1. The experiment in a line: purified protein. To be noted: analogous to ρ-nitrophenyl ester assay (50 mM sodium phosphate pH 7.0, 30°C).

Where “and” joins values, the source holds several entries; their conditions need not be identical. Equal values may be shown once.

As a reminder, the Km is the concentration of substrate that gives half-maximal velocity. As for “Pye3 (pyrethroid-hydrolyzing esterase) (uncultured prokaryote)”, the Michaelis-Menten constant (Km) is 0.10 µM and 0.18 µM.
